Patent US20050090447A1, “Peptides that promote complement activation” (Baxter International Inc., priority 2003, published 2005)
Bridge positions count the residues as written; N and C are the ends. Ends that are not written are not given here.

Experiments:
C5 = target: T1, C5 (Homo sapiens, UniProt P01031); test: Phage clone binding to biotinylated C5 (neutravidin capture, anti-M13 antibody detection); conditions: phage clones, FIG. 1
T1 construct: purchased Advanced Research Technologies
Method: FIG. 1 is a bar graph depicting the binding of peptide #1, peptide #2, and peptide #3 to C5. […] Wild-type M13 phage without a peptide fused to the pill protein was used as a negative control for this assay.
To confirm that Peptides 1, 2, and 3 (Sequence I. D. Nos:1, 2, and 3, respectively) bind C5, the phage clones were tested in a binding assay with increasing amounts of phage incubated with constant biotinylated C5, captured on a neutravidin plate and detected with an anti-phage antibody. Increasing concentrations of each phage clone were incubated for 2 hours with 200 ng of biotinylated C5 in PBS containing 0.5% BSA. The phage bound C5 complex was captured on a neutravidin coated microplate for 20 minutes at room temperature and then washed well. A peroxidase labeled anti-M13 antibody (Pharmacia) was used to detect the amount of phage bound to C5 with OPD substrate.

[1] = system: E. coli strain 07:K1:NM (ATCC 23503); test: Bactericidal assay, complement-mediated killing in pooled human plasma, colony count; type: cell-based; conditions: 100 uM peptide, one hour 37° C.; plasma alone 71%
Method: FIG. 4 is a bar graph depicting bacteriocidal activity of peptides against E. coli O7:K1:NM. Controls were run with plasma alone, complement inactivated (heat inactivated) plasma, and PBS/0.5% BSA.
The ability of Peptides 1- 3 to enhance complement-mediated killing of bacteria was examined. A virulent strain of E. coli that was chosen for the assays. E. coli strain 07:K1:NM (ATCC 23503), a strain less susceptible to complement mediated killing than most strains of E. coli, were grown in LB media to an optical density (OD) at 600 nm between 0.3 to 0.4 at 37° C. The cells were washed and resuspended in PBS containing 0.5% BSA and the concentration of cells determined from the OD at 600 nm. The cells were diluted in PBS/0.5% BSA to a concentration of 2×10^5 cfu/mL and 100 ul of cells were added to 100 ul of pooled human plasma containing 100 uM of peptide. The sample was incubated for one hour at 37° C. 10 ul aliquots were removed before and after the incubation and bacterial survival was examined by the colony count method (counting cells on LB agar before and after incubation). Heat inactivated plasma (56° C., 30 min.), plasma with no peptide, and PBS/0.5% BSA were also incubated with the cells as controls.

classical pathway = test: Classical pathway hemolytic assay, antibody sensitized sheep erythrocytes in pooled human plasma; type: cell-based; conditions: disulfide bond reduced and cysteines alkylated; data not shown
Method: FIGS. 2A and 2B are bar graphs depicting percent hemolysis above control versus peptide concentration with peptides 1, 2, and 3 for classical pathway activation (FIG. 2A), and alternative pathway activation (FIG. 2B). Percent hemolysis above control is the percent lysis of erythrocytes for each peptide concentration minus the lysis of erythrocytes in the absence of peptide.
Activation of the classical and alternative pathway by the peptides was measured using standard hemolysis assays. For the classical pathway various concentrations of peptide were incubated with 50 ul pooled human plasma (diluted 1:30 with GVB++), 5×10^7 antibody sensitized sheep erythrocyte cells, and GVB++buffer to a final volume of 200 ul. The reaction was incubated at 37° C. for one hour and centrifuged. The percentage of lysis was determined by measuring the optical density of the supernatant at 414 nm. […] Lysis of the erythrocytes was not observed when the peptides were incubated in the absences of a source of complement (plasma). The peptides altered the activity of the complement protein(s) and increased the level of activation of the complement cascade resulting in an increase in hemolysis. Furthermore, when the disulfide bond of peptide 2 was reduced and the cysteines alkylated, enhancement of erythrocyte lysis was reduced (data not shown).

T1 sequence (P01031 19-1676): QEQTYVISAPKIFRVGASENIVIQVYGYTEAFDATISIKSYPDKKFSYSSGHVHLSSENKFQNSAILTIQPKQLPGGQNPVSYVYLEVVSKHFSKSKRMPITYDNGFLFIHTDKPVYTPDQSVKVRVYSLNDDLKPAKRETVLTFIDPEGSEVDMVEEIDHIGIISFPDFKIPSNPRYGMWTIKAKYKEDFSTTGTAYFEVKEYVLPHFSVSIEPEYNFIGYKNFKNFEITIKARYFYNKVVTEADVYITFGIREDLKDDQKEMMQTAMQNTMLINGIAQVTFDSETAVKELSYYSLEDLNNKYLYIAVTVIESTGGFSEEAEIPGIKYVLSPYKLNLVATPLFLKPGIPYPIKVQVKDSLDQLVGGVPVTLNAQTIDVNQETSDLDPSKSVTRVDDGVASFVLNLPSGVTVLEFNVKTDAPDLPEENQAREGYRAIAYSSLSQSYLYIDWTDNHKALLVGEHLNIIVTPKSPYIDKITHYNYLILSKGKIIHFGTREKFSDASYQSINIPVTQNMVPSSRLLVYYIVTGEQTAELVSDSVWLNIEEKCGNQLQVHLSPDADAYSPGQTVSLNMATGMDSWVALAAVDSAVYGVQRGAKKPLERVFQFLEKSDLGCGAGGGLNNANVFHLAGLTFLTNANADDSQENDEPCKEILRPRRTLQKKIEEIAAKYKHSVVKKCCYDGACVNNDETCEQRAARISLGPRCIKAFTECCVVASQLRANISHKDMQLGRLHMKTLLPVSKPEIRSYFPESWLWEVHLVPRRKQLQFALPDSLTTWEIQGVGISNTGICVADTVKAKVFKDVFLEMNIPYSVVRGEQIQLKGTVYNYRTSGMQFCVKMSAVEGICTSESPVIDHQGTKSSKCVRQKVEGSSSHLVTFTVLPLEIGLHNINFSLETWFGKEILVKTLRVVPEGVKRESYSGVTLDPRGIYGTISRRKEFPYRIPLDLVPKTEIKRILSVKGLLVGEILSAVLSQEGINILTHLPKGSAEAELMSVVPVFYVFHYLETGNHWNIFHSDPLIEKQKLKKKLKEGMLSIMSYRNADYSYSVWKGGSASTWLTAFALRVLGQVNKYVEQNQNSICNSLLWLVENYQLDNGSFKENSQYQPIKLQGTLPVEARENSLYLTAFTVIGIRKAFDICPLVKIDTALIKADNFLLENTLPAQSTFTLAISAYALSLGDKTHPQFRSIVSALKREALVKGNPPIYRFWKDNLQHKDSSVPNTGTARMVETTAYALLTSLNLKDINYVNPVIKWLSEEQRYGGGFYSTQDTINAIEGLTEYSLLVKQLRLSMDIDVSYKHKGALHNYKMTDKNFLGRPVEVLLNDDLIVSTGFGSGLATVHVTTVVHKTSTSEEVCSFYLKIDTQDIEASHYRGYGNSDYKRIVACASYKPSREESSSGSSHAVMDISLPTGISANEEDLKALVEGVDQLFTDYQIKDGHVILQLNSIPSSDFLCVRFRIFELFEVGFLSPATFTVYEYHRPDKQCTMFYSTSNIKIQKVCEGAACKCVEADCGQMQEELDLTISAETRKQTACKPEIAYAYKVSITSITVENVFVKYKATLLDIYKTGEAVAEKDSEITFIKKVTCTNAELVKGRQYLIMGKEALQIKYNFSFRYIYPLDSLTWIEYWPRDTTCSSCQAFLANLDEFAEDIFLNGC

Row | Sequence | relative affinity for C5 (rank order) (C5) | bacterial survival [1] [%] | enhancement of erythrocyte lysis (classical pathway)
1 | CPGKASPWC (YCPGKASPWCGGG; disulfide 2-10 (inferred)) [Peptide 3, synthetic form has added N terminal tyrosine and three C terminal glycines] | then Peptide 3 |  | 
2 | CLSAHHHMC (YCLSAHHHMCGGG; disulfide 2-10 (inferred)) [Peptide 1, synthetic form has added N terminal tyrosine and three C terminal glycines] | tightest relative affinity | 23 | 
3 | CPSSPPHMC (YCPSSPPHMCGGG; disulfide 2-10 (inferred)) [Peptide 2, synthetic form has added N terminal tyrosine and three C terminal glycines] | followed by Peptide 2 |  | reduced
